Test results published in the nanobody polyreactivity screen of Harvey et al. (2022).

Test: yeast display, Sf9 membrane polyspecificity reagent, FACS + sequencing; frameworks hold sequencing errors
How it was run: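 In a synthetic yeast display library (Saccharomyces cerevisiae BJ5465), nanobody expression was induced with galactose for 36–48 hours. FACS gates were set low and high (top ~1%) using anti-HA fluorescence for expression and streptavidin fluorescence for binding of the Sf9 membrane reagent. Each polyreactivity label is drawn from the gate of origin.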

Sequence | polyreactivity (PSR sort gate)
QVQLVESGVGLVQAGGSLRLSCAASGRIFPTYAMGWYRQAPGQERELVAGITSGGRTNYADSVKGRFTISRDNAKNTVYLQMNSLKPEDTAVYYCAKRVWPRDQYGKRNPRMDYWGQGTQVTVSS | high polyreactivity
QVQLVESGGGLVQAGGSLRLSWAASGNIFLYYAMGWYRQAPGKERELVPDIDSSGASTYYADSVKGRFTISRDNAKNTVYLQMNSLKPEDTAVYYCAAEFHWWYAGDDYGYWGQGTQVTVSS | low polyreactivity
QVQLVESGGGLVQAGGSLRLSCAASGRIFTGYAMGWSRQAPGKERELVASITWRGGSTSYADSVKGRFTISRDNAKNTVYLQMNRLKPEDTAVYYCAAQKWYYPYYWGQGTQVTVSS | high polyreactivity
QVQLVESGGGLVQAGGSLRLSCAASGFIFRRYAMGWYRPAPGKERELVAAITGGGGSTYYADSVKGRFTISRDNAKNTVYLQMNSLKPEDSAVYYCAASQARNYKIYDYWGQGTQVTVSS | high polyreactivity
QVQLVESGGGLVQAGGSLRLSCAASGSIFWSNSMGWDRQAPGKERELDAAISQDGGSTNYADSVKGRFTISRDNAKNTVYLQMTSQKPEDTAVYYCAVKYWSYEPPSYSIEYGYWGQGTQVTVSS | low polyreactivity
QVQLVESGGGLVQAGGILRLSFAASGFISLDYAMGWYRQAPGKERELVAAISNGGGTNYADSVKGRFTISRDNAKNTVYLQMNSLKPEDTAVYYCNASVSYGYEYDSWGQGTQVTVSS | low polyreactivity
QVQLVVSGGGLVQAGGSLRLSCAASGIIFVQYTMGWYRQAPGQERELDAAITRGGNTYYADSVKGRFTISRDNAKNTVYLQMNSLKPEATAVYYCNKAYWYANLRYRTGVKLQFYYWGQGTQVNVSS | high polyreactivity
QVQLVESGGGLVQAGGSLRLSCAASGITFEYYDMGWYRQAPGKERELVAAISWSTDITYADSVKGRFTISRDNAKNTVYLQLNSLKPEDTAVYYCAALGGLSDFWHLYDYWGQGTQVTVSS | low polyreactivity
QVQLVESGGGLVQAGGSLRLSCAASGRIFRWYAMGWYRQAPGKERELVAAISWSGGRTYYADSVKGRFTISRDNAKNTVYFQMNSLKPEDTAVYYCAAEGAIPRYYIGGVDYWGQGTQVTVSS | high polyreactivity
QVQLVESGGGLVQAGGSLRLSCAASGFTFWRNVMGWYRQAPGKERELVAVISRGGSTNYADSVKGRFTISRDNAKNTVYLKMNSLIPEDTAVYYFAKYARGPSKVDYWGQGTQVTVSS | high polyreactivity
QVQLVESGGGLVQAGASLRLSCAASGGIFVVYGMGWYRQAPGNERELVAAISWRGGSTYYADSVKGRFTISRDNAKNTVYLQMNSLKPEDTAVYYCAADQYYGGYDYWGQGTQVTVSS | low polyreactivity
QLLLVESGGGLVQAGGSLRLSCATSGIILRYYAMGWYRQAPGKERELVAAISGSGTRTYYADSVKGRFTISRDNAKNTVYLQMNSLKPEDTAVYYCAAAHPATRYDYWGQGTQVTVSS | high polyreactivity
QVQLVESGGSLVQAGGSLRLSCAASGSTFTKYVMGWYRQAPGKERELVAAISQSGTRTYYADSVKGRFTISRDNAKNTVYLQMNSLKPEDTAVYYCNKPVRNGSYHNRYNYWGQGTQVTVSS | high polyreactivity
QVQLVESGGGLVQAGGSLRLSCAASGRTFWKYAMGWSRQAPGKERELVAAITDDDSTDYADSVKGRFTISRDNAKNTVYLQMTSLKPEYTAVYYCNADSSRYYRALEYWGQGTQVTVSS | low polyreactivity
QVQLVESGGGLVQAGGSLRLSCAASGFIFYAMGWYRQAPGKERELVAAITLSDGTTYYADSVKGRFTISRDNAKNTVYLQMNSLKPEDTAVYYCAAEYSVPYRGWDGYEYWGQGTQVTVSS | low polyreactivity
QVQLVESGGGLVQAGGSLRFSCAASGSTTYRYAMGWYRQAPGKERELVAAISSRGGSTYYADSVKGRFTISRDNAKNTVYLQMNSLKPEDTAVYYCAVKDRYSFRYDYWGQGTQVTVSS | high polyreactivity
QVQLVESGGGLVQAGGSLRLSCAASGSIFDSYAMGWYRQAPGKEWELVAAISGNSDSTYYADSVKGRFTISRDNAKNTVYLQMNSLKPEDTAVYYCAKEGGNGYDYWGQGTQVTVSS | low polyreactivity
QVQLVESGGGLVQAGGSLRLSCAASGRTFRFYAMGWYRQAPGKERELVASISSSGGSTYYADSVKGRFTISRDNAKNTVYLQMNSLKPEDTAVYYCNADVTNWEDDYYYWGQGTQVTVSS | high polyreactivity
QVQLVESGGGLVQAGGSLRLSCAASGSTSIYYTMGWYRQAPGKERELVAYADSVKGRFTISRDNAKNTVYLQMNRLKPEDTAGYYCAAPRTYYSELTSPYDYWGQGAQVTVSS | low polyreactivity
QVQLVESGGGLVQAGGSLRLSCAASGRNFVNYAMGWYRQAPGKERELVAVISRSGGGTNYADSVKGRYTISRDNAKNTVYLQMNSLKPEDTAVYYCAASRKYGYGYWGQGTQVTVSS | high polyreactivity
QVQLVESGGGLFKAGGSLRLSCAASGFIFYFYNMAWYRQAPGKERELVAAISKSGTSTYYAASVKGRFTISRDNAKNTVYLQMNSLKPEDPAVYYCNKVRRANFDYWGQGTQVTVSS | high polyreactivity

Sequence | polyreactivity (PSR sort gate)
QVQLVESGGGLVQAGGSLRLSCAASGSIFVRYAMGWYRQAPGKERELVAVISSDGRTYYADSVKGRFTISRDNAKNTVYLQMNSLKPEDTAVYYCAKRAWGFGGYDYWGQGTQVTVSS | low polyreactivity
QVQLVESRGGLVQAGGSLRLSCAASGFILVIYAMGWYRQAPRKERELVAAITSDGSTNYADSVKGRFTISRDNAKNSVYLQMNSLKPEDTAVYYCAADAVNPLDYWGLGTQVTVSS | low polyreactivity
QVQLVESGGGLVQAGGSLRLSCAASGSIFGVNMGWYRQAPGKERELVASITSGGSTNYADSVKGRFTISRDNAKNTVYLQMNSLKPEDTAVYYCATDRYVWGQGTQVTVSS | low polyreactivity
QVQLVDSGGGLVQAGGSLRLSCAASGRIFPRNAMGWYRQAPGKERELVATIRSSTYYADSVKGRFTISRDNAKNTVYLQMNSLKPEDTAVYYCNVRLSYSYISPSDWNFDYWGQGTQVTVSS | low polyreactivity
QVQLVESGGGLVQAGGSLRLSCAASGFTFNANARGWYRQAPGKEREVVAVITRSGGRTYYADSVKGRFTISRDNAKNTVYFQMNSLNPEDTAVYYCAKEGPSRVYQGTDCASDSWGHGTQVTVSS | high polyreactivity
QVQLVESGGGLVQAGGSLRLSCAASGSIFINNMGWYRQAPGKERELVAAISNSGGRTYYADSVKGRFTISRDNAKNTVYLQMNSLKPEDTAVYYCAKKSNRLPYGYWGQGTQVTVSS | high polyreactivity
QLQLVESGGGLVQAGGSLRLSCAASGSTFSPYAMGWYRQAPGKERELVAAISASGGGTYYADSVKWRLTISRDNAKNTVYLQMNSLKPEDTAVYYCARDYGWDISKGRYGYWGQGTQVTVSS | low polyreactivity
QVQLVESGGGLVQAGGSLRLSCAASGSIFSYYDMGWYRQAPGKERELVAAIRWSGGITYADSVKGRFTISRDNAKNTVYLEMNSLKPEDTAVYYCAADQYYRSDYYYWGQGTQVTVSS | low polyreactivity
QVQLVESGGGLVQAGGSLRLSCDDSGRTFYPYAMGRYRHAPGKERELVAAISYRGGSTYYADSVKGRFTISRDNAKNTVYLQMNCLKPEDRAVYYCAKRGYASGSKWDYGYWGQGTQLTVSS | high polyreactivity
QVQLVETGGGLVQAGGSLRLSCAASGRTFGYYTMGCYRQAPGKERELVAGISSAGSTNYADSVKGRFTISRDNAKNTVYLQMNSLKPADTAVYYCAARTYKVIQNNSWETYYYWGQGTQVTVSS | high polyreactivity
QVQLVESRGGLVLAGGSLRLSCAASGSIFPSYAMGWYRQAPGKERELVASISYRGGSTYYADSVKGRFTISRDNAKNTVYLQMNSLKPEDTAVYYCAATKERYYGWSRLTGYYRGNYWGQGTQVTVSS | high polyreactivity
QVQLVESGGGLVQAGGSLRLSCAASGSIFSSYAMGWSRQAPGKERELVAAISSGDSTYYADSVKGRFTISRDNAKTTVYLQMNSLKPEDTAVYYCAAPWYAWGQGTQVTVSS | low polyreactivity
QVQLVESGGGLVQAGGSLRLSCAASGSIFDYYAMGWYRQAPGKERELVATISWIGDRTYYADSVKGRFTISRDNAKNTVYLQMNSLKPEDTAVYYCATDYYEDWRGYVDYWYRPYDYWGHGTQVTVSS | high polyreactivity
QVQLVESGGGLVQAGGSLRLSCAASGYTFYQNAMGWYRQAPGKERELVAAITFRTGSTYYADSVKGRFTISRDNAKNTVYLQMNSLKPEDTAVYYCAATRFLRDWWYGYWGQGTQVTVSS | low polyreactivity
QVQLVESGGGLVQAGGSLRLSCDASGRIFSRNSMGWYRQAPGKERELVAANTWRGGSTYYADSVKGRFTISRDNAKNTVYLQLNSLKPEDPAVYYCNRDYRQYGYAYSGRYYWGQGTQVTVSS | high polyreactivity
QVQLVESGGGLVQAGGSLRLSCAASGSIFRWNAMGWYRQAPGKERELVAAISKSGGRRYYADSVKGRFTISRDNAKNTVYLQMNSVKPEDTAVYYCAAGYTTTQYYGPQYDYWGQGTQVTVSS | high polyreactivity
QVQLVESGGGLVQAGGSLRLSCAASGFTFAYDAMGWYRQAPGKERELVAAIRRRGGITYYADSVKGRFTISRDNAKNTVYLQMNSLKPEDTAVYYWNAVRSYPAGYDSWGQGTQVTVSS | low polyreactivity
QVQLVESGGGLVQAGGSLRLICAASGITFVEYSMGWYRQAPGKERDLVAAISWSGVRTRYADSVKGRFTISRDNAKNTVYLQMNSLKPEDTAVYYCYTVPRGGGGVRILDYWGQGTQVTESS | high polyreactivity
QVQLVESGGGLVQAGGSLRLSCAASGFIFSSYAMGWYRQAPGKERELVAAITSGGSTNYADSVKGRFTISRDNAKNTVYLQMNSLKPEDTAVYYCAADGVASLFGDPPTEFDYWGQGTQVTVSS | low polyreactivity
QVQLVESGGGLVQAGGSLRLSCAASGITFPANAMGWYRQAPGKERELVAAISTSGGSTYYADSVKGRFTISRDNAKNTVYLQMNSLKPEDTAVYYCAATIYPYYSLYSHYYWGQCTQVTVSS | high polyreactivity
